Data published in patent US20260193326A1.
Where a chain is given by its changes, count along the chain named.

What was measured:
Assay in all cases: SPR, AAV on CM5 chip
[1] = biological target: AAV5 (adeno-associated virus serotype 5)
[2] = biological target: AAV8 (adeno-associated virus serotype 8)
[3] = biological target: AAV9 (adeno-associated virus serotype 9)

B1: A4-C7 (bispecific antibody)
chain: VQLQESGGGLVQPGGSLRLSCAASGSNFSINTMGWYRQAPGKQRELVATVTRGGDTNYADSVKGRFTISRDNAKNTVYLQMNSLRPEDTAVYYCHVDEIRESSWTTSNLWGQGTQVTVSSGGGGSGGGGSGGGGSVQLQESGGGLVQPGGSLRLSCAASGSNFRINTMGWYRQAPGKQRELVAPVTRGGSTNYADSVKGRFTISRDNAKNTVYLQMNSLRPEDTAVYYCHVDEVRESSWTTSNLWGQGTQVTVSSGGGGSGGGGSGGGGSVQLQESGGGLVQPGGSLRLSCAASGSSFTINTMGWYRQAPGKQRELVAAVTRGGSTNYAGSVKGRFTISRDNAKNTIYLQMNSLRPEDTAVYYCHVDEIRQSSWTTSNLWGQGTQVTVSS
B1 showed a Kd [1] of 0.0732 nM, a koff [1] of 3.2e-05 s⁻¹ and a kon [1] of 437000 M⁻¹ s⁻¹. For the same binder, the Kd [2] was 3.7 nM, the koff [2] was 0.00047 s⁻¹ and the kon [2] was 127000 M⁻¹ s⁻¹. For the same binder, the Kd [3] was 0.127 nM, the koff [3] was 1.75e-05 s⁻¹ and the kon [3] was 137000 M⁻¹ s⁻¹.

B2: A4-C3 (bispecific antibody)
chain: VQLQESGGGLVQPGGSLRLSCAASGSIFSINLMGWYRQAPGKQRELVATITRGGNTNYAGSVKGRFTISRDNAKNTVYLQMNSLRPEDTAVYYCHVDEVRQSSWTTSNLWGQGTQVTVSSGGGGSGGGGSGGGGSVQLQESGGGLVQPGGSLRLSCAASGSIFSINLMGWYRQAPGKQRELVATITRGGNTNYAGSVKGRFTISRDNAKNTVYLQMNSLRPEDTAVYYCHVDEVRQSSWTTSNLWGQGTQVTVSSGGGGSGGGGSGGGGSVQLQESGGGLVQPGGSLRLSCAASGSNFRINTMGWYRQAPGKQRELVATVTRGGSTNYADSVKGRFTISRDNPKDTVYLQMNSLRPEDTAVYYCHVDEVRESSWTTSNLWGQGTQVTVSS
With B2 the Kd [1] was 0.628 nM, the koff [1] was 9e-05 s⁻¹ and the kon [1] was 143000 M⁻¹ s⁻¹. For the same binder, the Kd [2] was 0.534 nM, the koff [2] was 4e-05 s⁻¹ and the kon [2] was 74900 M⁻¹ s⁻¹. It also gave a Kd [3] of 0.491 nM, a koff [3] of 9e-05 s⁻¹ and a kon [3] of 183000 M⁻¹ s⁻¹.

B3: A4-D1 (VHH)
chain: VQLQESGGGLAQAGGSLRLSCAASGRGFSINTMGWYRQAPGKQRELVAAVTRGGTTNYADSVKGRFTISRDNAKNTVYLQMNSLRPEDTAVYYCHVDEVRQSSWTTSNLWGQGTQVTVSSGGGGSGGGGSGGGGSVQLQESGGGLAQAGGSLRLSCAASGRGFSINTMGWYRQAPGKQRELVAAVTRGGTTNYADSVKGRFTISRDNAKNTVYLQMNSLRPEDTAVYYCHVDEVRQSSWTTSNLWGQGTQVTVSSGGGGSGGGGSGGGGSVQLQESGGGLAQAGGSLRLSCAASGRGFSINTMGWYRQAPGKQRELVAAVTRGGTTNYADSVKGRFTISRDNAKNTVYLQMNSLRPEDTAVYYCHVDEVRQSSWTTSNLWGQGTQVTVSSGGGGSGGGGSGGGGSVQLQESGGGLAQAGGSLRLSCAASGRGFSINTMGWYRQAPGKQRELVAAVTRGGTTNYADSVKGRFTISRDNAKNTVYLQMNSLRPEDTAVYYCHVDEVRQSSWTTSNLWGQGTQVTVSS
Binder B3 has a Kd [1] of 0.0576 nM, a koff [1] of 2.2e-06 s⁻¹ and a kon [1] of 38200 M⁻¹ s⁻¹. The Kd [2] was 0.0543 nM, the koff [2] was 1.81e-05 s⁻¹ and the kon [2] was 334000 M⁻¹ s⁻¹. The Kd [3] was 0.0533 nM, the koff [3] was 3.1e-06 s⁻¹ and the kon [3] was 58200 M⁻¹ s⁻¹.

B4: A4-C5 (bispecific antibody)
chain: VQLQESGGGLVQPGGSLRLSCAASGSNFRINTMGWYRQAPGKQRELVATVTRGGSTNYADSVKGRFTISRDNPKNTVYLQMNSLRPEDTAVYYCHVDEVRESSWTTSNLWGQGTQVTVSSGGGGSGGGGSGGGGSVQLQESGGGLVQPGGSLRLSCAASGSNFSINTMGWYRQAPGKQRELVATVTRGGDTNYADSVKGRFTISRDNAKNTVYLQMNSLRPEDTAVYYCHVDEIRESSWTTSNLWGQGTQVTVSSGGGGSGGGGSGGGGSVQLQESGGGLVQPGGSLRLSCAASGSNFRINTMGWYRQAPGKQRELVATVTRGGSTNYADSVKGRFTISRDNPKNTVYLQMNSLRPEDTAVYYCHVDEVRESSWTTSNLWGQGTQVTVSS
Binder B4 has a Kd [1] of 7.86 nM, a koff [1] of 0.0013 s⁻¹ and a kon [1] of 165000 M⁻¹ s⁻¹. It also gave a Kd [2] of 4.97 nM, a koff [2] of 0.00091 s⁻¹ and a kon [2] of 183000 M⁻¹ s⁻¹. It also gave a Kd [3] of 1.68 nM, a koff [3] of 0.0002 s⁻¹ and a kon [3] of 119000 M⁻¹ s⁻¹.

B5: A4-C8 (bispecific antibody)
chain: B4 chain with T49P, P73A, R299S, T319A, V320L, P343A
B5 was tested, and the Kd [1] was 0.69 nM, the koff [1] was 0.00013 s⁻¹ and the kon [1] was 188000 M⁻¹ s⁻¹. For the same binder, the Kd [2] was 2.81 nM, the koff [2] was 0.00037 s⁻¹ and the kon [2] was 132000 M⁻¹ s⁻¹. The Kd [3] was 0.279 nM, the koff [3] was 5e-05 s⁻¹ and the kon [3] was 179000 M⁻¹ s⁻¹.

B6: A4-C6 (bispecific antibody)
chain: B4 chain with T49P, P73A, T184A, V185L, D190S, I234V, R299S, S325D, P343A, V369I
B6 gave a Kd [1] of 0.785 nM, a koff [1] of 0.000139 s⁻¹ and a kon [1] of 177000 M⁻¹ s⁻¹. It also gave a Kd [2] of 2.67 nM, a koff [2] of 0.00044 s⁻¹ and a kon [2] of 165000 M⁻¹ s⁻¹. It also gave a Kd [3] of 0.55 nM, a koff [3] of 2.5e-05 s⁻¹ and a kon [3] of 45400 M⁻¹ s⁻¹.

B7: A4-C9 (bispecific antibody)
chain: B4 chain with R29S, S55D, P73A, V99I, T184A, V185L, D190S, I234V, T319P, P343A
In the case of B7, the Kd [1] is reported as 0.777 nM, the koff [1] is reported as 5e-05 s⁻¹ and the kon [1] is reported as 64300 M⁻¹ s⁻¹. For the same binder, the Kd [2] was 1.14 nM, the koff [2] was 0.00013 s⁻¹ and the kon [2] was 114000 M⁻¹ s⁻¹. The Kd [3] was 0.669 nM, the koff [3] was 0.00013 s⁻¹ and the kon [3] was 194000 M⁻¹ s⁻¹.

B8: A4-C4 (bispecific antibody)
chain: VQLQESGGGLVQAGGSLRLSCAASGSRFSINTMGWYRQAPGKQREFVATVTRGGNTNYAESVKGRFTISRDNAKNTVYLQMNSLRPEDTAVYYCHVDEVRDSSWTTSNIWGQGTQVTVSSGGGGSGGGGSGGGGSVQLQESGGGLVQAGGSLRLSCAASGSRFSINTMGWYRQAPGKQREFVATVTRGGNTNYAESVKGRFTISRDNAKNTVYLQMNSLRPEDTAVYYCHVDEVRDSSWTTSNIWGQGTQVTVSSGGGGSGGGGSGGGGSVQLQESGGGLVQPGGSLRLSCAASGSNFRINTMGWYRQAPGKQRELVATVTRGGSTNYADSVKGRFTISRDNPKDTVYLQMNSLRPEDTAVYYCHVDEVRESSWTTSNLWGQGTQVTVSS
In the case of B8, the Kd [1] is reported as 6.72 nM, the koff [1] is reported as 0.00121 s⁻¹ and the kon [1] is reported as 180000 M⁻¹ s⁻¹. The Kd [2] was 2.36 nM, the koff [2] was 0.00025 s⁻¹ and the kon [2] was 106000 M⁻¹ s⁻¹. The Kd [3] was 1.87 nM, the koff [3] was 0.00031 s⁻¹ and the kon [3] was 165000 M⁻¹ s⁻¹.

B9: A4-B1 (VHH)
chain: VQLQESGGGLVQPGGSLRLSCAASGSIFSINLMGWYRQAPGKQRELVATITRGGNTNYAGSVKGRFTISRDNAKNTVYLQMNSLRPEDTAVYYCHVDEVRQSSWTTSNLWGQGTQVTVSSGGGGSGGGGSGGGGSVQLQESGGGLVQPGGSLRLSCAASGSIFSINLMGWYRQAPGKQRELVATITRGGNTNYAGSVKGRFTISRDNAKNTVYLQMNSLRPEDTAVYYCHVDEVRQSSWTTSNLWGQGTQVTVSS
B9 gave a Kd [1] of 0.102 nM, a koff [1] of 1.23e-05 s⁻¹ and a kon [1] of 121000 M⁻¹ s⁻¹. The Kd [2] was 1.63 nM, the koff [2] was 0.000154 s⁻¹ and the kon [2] was 94500 M⁻¹ s⁻¹. For the same binder, the Kd [3] was 0.715 nM, the koff [3] was 0.00014 s⁻¹ and the kon [3] was 196000 M⁻¹ s⁻¹.

B10: A4-C2 (VHH)
chain: VQLQESGGGLVQPGGSLRLSCAASGSAFSINTMGWYRQAPGKQRELVASVTPGGSTNYADSVKGRFTISRDNAKNTIYLQMNSLRPEDTAVYYCHLDEVRESSWTTSNLWGQGTQVTVSSGGGGSGGGGSGGGGSVQLQESGGGLVQPGGSLRLSCAASGSAFSINTMGWYRQAPGKQRELVASVTPGGSTNYADSVKGRFTISRDNAKNTIYLQMNSLRPEDTAVYYCHLDEVRESSWTTSNLWGQGTQVTVSSGGGGSGGGGSGGGGSVQLQESGGGLVQPGGSLRLSCAASGSAFSINTMGWYRQAPGKQRELVASVTPGGSTNYADSVKGRFTISRDNAKNTIYLQMNSLRPEDTAVYYCHLDEVRESSWTTSNLWGQGTQVTVSS
B10 was tested, and the Kd [1] was 0.691 nM, the koff [1] was 0.000134 s⁻¹ and the kon [1] was 194000 M⁻¹ s⁻¹. The Kd [2] was 0.359 nM, the koff [2] was 5e-05 s⁻¹ and the kon [2] was 139000 M⁻¹ s⁻¹. It also gave a Kd [3] of 0.486 nM, a koff [3] of 0.000125 s⁻¹ and a kon [3] of 257000 M⁻¹ s⁻¹.

B11: A4-C1 (VHH)
chain: VQLQESGGGLVQPGGSLRLSCAASGSGFSINTMGWYRQAPGKQRELVATVTRDGSTNYADFVKGRFTISRDNAKNTVYLQMNSLRPEDTAVYYCHLDEVRESSWTTSNLWGQGTQVTVSSGGGGSGGGGSGGGGSVQLQESGGGLVQPGGSLRLSCAASGSGFSINTMGWYRQAPGKQRELVATVTRDGSTNYADFVKGRFTISRDNAKNTVYLQMNSLRPEDTAVYYCHLDEVRESSWTTSNLWGQGTQVTVSSGGGGSGGGGSGGGGSVQLQESGGGLVQPGGSLRLSCAASGSGFSINTMGWYRQAPGKQRELVATVTRDGSTNYADFVKGRFTISRDNAKNTVYLQMNSLRPEDTAVYYCHLDEVRESSWTTSNLWGQGTQVTVSS
With B11 the Kd [1] was 13.2 nM, the koff [1] was 0.00138 s⁻¹ and the kon [1] was 104000 M⁻¹ s⁻¹. It also gave a Kd [2] of 9.2 nM, a koff [2] of 0.00164 s⁻¹ and a kon [2] of 178000 M⁻¹ s⁻¹. For the same binder, the Kd [3] was 1.03 nM, the koff [3] was 1e-05 s⁻¹ and the kon [3] was 9690 M⁻¹ s⁻¹.

B12: A4-B2 (bispecific antibody)
chain: VQLQESGGGLVQAGGSLRLSCAASGSRFSINTMGWYRQAPGKQREFVATVTRGGNTNYAESVKGRFTISRDNAKNTVYLQMNSLRPEDTAVYYCHVDEVRDSSWTTSNIWGQGTQVTVSSGGGGSGGGGSGGGGSVQLQESGGGLVQAGGSLRLSCAASGSTFSINTMGWYRQAPGKQRELVATITRGGNTNYADSVKGRFTISRDNAKNTVYLQMNSLRPEDTAVYYCHVDEVRQSSWTTSNLWGQGTQVTVSS
For B12, the Kd [1] was 7.38 nM, the koff [1] was 0.00117 s⁻¹ and the kon [1] was 159000 M⁻¹ s⁻¹. For the same binder, the Kd [2] was 1.02 nM, the koff [2] was 0.00014 s⁻¹ and the kon [2] was 138000 M⁻¹ s⁻¹. The Kd [3] was 8.35 nM, the koff [3] was 0.0008 s⁻¹ and the kon [3] was 95800 M⁻¹ s⁻¹.
